Data reported in paper PMC8498194.

Target: hnRNP A1B (heterogenous ribonucleoprotein A1B), mouse (mouse (endogenous in C57BL6/N tissues))
Assay: SDS-PAGE immunoblot of tissue lysates (SDS-resistant band); 15 ug of mouse tissue lysate (2 month-old mice, CNS and peripheral tissues) on 12.5% SDS-PAGE, blotted with anti-hnRNP A1B (custom) or anti-hnRNP A1 (4B10)

## hnRNP A1B (heterogenous ribonucleoprotein A1B), mouse (natural protein)
  stoichiometry N: 2
